Measurements reported in the supplement of paper PMC12042874.
± gives the uncertainty stated by the source.

Assay: amyloid nucleation score (Sup35N fusion, yeast selection) (log enrichment); library NNK2; higher = more nucleation; inactive = no reads after selection
Procedure, shortened: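 Libraries of peptides of 20 random codons fused to Sup35N were expressed in psi-negative yeast and induced 24 hours with 100 μM copper sulfate. Selection was 7 days at 30°C on medium lacking adenine and uracil, and plasmid inserts were Illumina-sequenced before and after selection. Nucleation score is the DiMSum log enrichment of output over input reads, centred on the mode score of non-aggregating sequences, and sequences with under 100 input reads were left out.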

Substance | amyloid nucleation score
CLYCGDLLLRFEYKCRGVNQ | 5.15 ± 0.092
SHRPWVWGQNISMKYRSVLK | 3.7 ± 0.057
TFDLQFELFMGDRTLSLL | -0.038 ± 0.29
YVSWRTNGLMSTCDFLTRQT | 0.719 ± 0.23
WCGARLKSDLCILK | -0.494 ± 0.31
ILLVYTLHRCLSSRVNEYQM | 4.22 ± 0.052
LVSERGSWVGLRFCSRSSVT | 0.359 ± 0.56
YPFLIS | -0.922 ± 1
NLDVSYYVIYIKPGRYPV | 6.09 ± 0.078
GKRLSAFWQVVRSWLHIGGM | 5.176 ± 0.035
MTMFTCMWVNRER | 4.79 ± 0.057
HYITKFSYDLGRKAKALVLS | -0.626 ± 0.54
GDYSCVHQVRKIDM | 0.162 ± 0.18
LDSSYY | inactive
GQSLLLEPSGWVSSDIKMKG | 0.153 ± 0.79
VSARDHLGKRNRHWINC | -0.626 ± 0.55
FIAFFSWFFGWWRKMQAQAL | inactive
VWQVERVTIFLGFVKNLGLV | 2.68 ± 0.084
DFLSGTMVDETSDKGISLLV | 0.605 ± 0.47
TYLSVGMNLLVGSPFNYNDL | inactive
WSLYHASERENIRPALTSIW | 0.325 ± 0.21
IWSQW | -0.134 ± 1.1
VSACSDLNGW | -0.233 ± 0.47
VIVKAVVDIIGSN | 0.147 ± 0.76
RFFGTTFYTAMMTRGFETVT | -0.139 ± 0.28

Substance | amyloid nucleation score
LSYPTVYLATLVYFLQMWAV | -0.285 ± 0.37
MSSPD | 6.596 ± 0.034
FERLNYQLREFYKVIKFSCV | inactive
NGRLWNGFMYCGWTNWFFCV | 1.11 ± 0.34
CNCQMGDVLEGLGDVGLNNF | -1.65 ± 0.62
YCCCVSMFVRTLIARDYNLN | 8.154 ± 0.078
FYTTRMYLVFSYFV | 3.29 ± 0.064
FFFLTHGWEPTVMKEIKSAM | inactive
WRGFTECRVKLRYSGSGQFC | 2.92 ± 0.058
FIDLYLRFWVCTSFQCAHSI | inactive
ISWVLRCQSKSRWLIQ | 0.627 ± 0.57
LKSSWPFDVKKAYKCYVKFA | 0.006 ± 0.65
VWDRITLFCSLLIRVHGLCT | 0.269 ± 0.29
QTCLHMSIGWVSP | 4.38 ± 0.082
HVAESHMS | 1.16 ± 0.43
NQGLRWLTDRDILRIVEVGM | 0.027 ± 0.65
TVIFVCHFTKVDCVSNTQSY | 3.42 ± 0.1
IWTRLGYRQVPRYSAIFSAV | 0.136 ± 0.37
MLNNRLNPLFARESGELLGA | 0.871 ± 0.15
LRTGHPSI | inactive
RYVTKGLCLL | 1.16 ± 0.47
YCITEVRWAVA | 5.61 ± 0.058
IITMLGQEWAFGKLFDPLTL | 0.524 ± 0.34
NGDMWKHIKRRQVNNRG | 0.881 ± 0.67
RFHELCV | 0.998 ± 0.74

Substance | amyloid nucleation score
SYFLGFVRYAVILSGMLLST | -0.281 ± 0.56
IVCLAVSLSSDRTE | 6.599 ± 0.04
CLNKIETPSTVKFRECHCCD | 4.517 ± 0.041
IYLSTCTYF | 0.155 ± 0.49
VGALCGYAVVSWYSWSLSVL | 1.83 ± 0.11
WQENFSHCNLSMLCEVNLSK | -0.44 ± 0.49
IIRTTSNRPTPLRCSPNLSM | -0.779 ± 0.33
VELQP | 1.18 ± 0.29
LSVTPIFGRNTDTLESGL | -0.093 ± 0.55
GSHLSSSFTKWMGIPAMVFR | -0.134 ± 0.54
RWTLWFEGRLERLVAIIS | -0.133 ± 1
LHFSGFTKFRFIMVFGKKVC | -1.24 ± 0.49
IDRGTFVLGFYRYKYNYFFK | inactive
SQFLEYTFEYFSGFPGRLVE | -0.316 ± 0.42
MLSFHLSVVAETMTWWSTRY | 0.857 ± 0.19
RVASVSYVSVWYEMCQCFRG | 9.503 ± 0.082
IFVNILNWLSVVRSSGFGSV | inactive
LFFYTYWC | inactive
MSTIITALEFNG | 0.188 ± 0.62
YSVSSMVKPMIICCNSVNC | 8.344 ± 0.051
RDGLVQMDVVLINVRVEVVC | -0.13 ± 0.76
FFHYVNAQVRGWLCTVYIIR | -0.574 ± 0.55
VSRSVY | 0.166 ± 0.3
TFKVVSKDNI | -0.317 ± 0.41
FLVMGLRYS | 5.407 ± 0.052

Substance | amyloid nucleation score
CKWIKEIVVED | -0.981 ± 1
SLNSGFRDPIYWSVLRRSPS | 6.81 ± 0.086
YYLYWHFKIYWRQHLVNAFN | -1 ± 1.1
AMWESLP | 1.41 ± 0.25
WESRLLEYLCTDVNTME | -0.553 ± 0.48
LCERYWKALK | inactive
VSITHQLTYW | 1.33 ± 0.53
RFRRLSIIVILYTASRDLWR | 0.289 ± 0.41
GTRDHGELGLLFTTTLLFVE | 1.39 ± 0.13
PTGGRLYSV | 0.012 ± 1
PIRWVGHNKGFQGL | -1.22 ± 0.75
THLLIIDIVKYRKHIL | 0.255 ± 1.1
FRVGLLVGISMVDFTLGVNA | 0.416 ± 0.8
CIMVSIVPKGVCLGVLVAVA | 0.345 ± 0.28
DCSDPCGSAPKDLSTKTVRC | 1.61 ± 0.26
SLSVI | 0.264 ± 0.65
CDQYHSQPWMLKTQIRLMTA | 1.27 ± 0.3
PGILDNRLGKQGAGLDLRWH | 1.17 ± 0.24
RFNGN | -0.541 ± 1.1
LFYRYFLCVTRRTNEYGVL | -1.75 ± 1
DILMLNRSVGDIREAISVNG | 0.48 ± 0.51
VTYLGACVYRCCEMSLVFRF | -0.412 ± 0.63
TNIYLGMIVRVHLLFLMELA | -0.891 ± 1.1
VSRMLSVMSMTTRMFLPYTS | 0.152 ± 0.61
ATPLSGMVFNWSFEWQGCLL | 0.949 ± 0.18

Substance | amyloid nucleation score
VVRYRLCSWMDIMCNVAACQ | 4.267 ± 0.042
HIRFVDWNDTLIWVANGYI | 0.049 ± 0.8
VDVFGVCRRSVYVA | 0.988 ± 0.4
QVLLFQWLSGDYQMIKMMRW | -0.207 ± 0.45
LRGYCLRWRHWTVSILEFGV | -1.02 ± 0.76
SNPTSVQVRFLLHILLKSVL | 0.629 ± 0.52
YGCCGKDFCVGPRGVCAV | 1.05 ± 0.24
KHSEDSYCFMSGLSGVICCK | 0.932 ± 0.19
MGFSRTLYIRKDIFLFVLHL | -0.759 ± 0.64
LFKRGIVGDRGTKG | -0.905 ± 0.48
LLDYLYDIGRHTKGK | -0.337 ± 1.1
FNWDNFSKLVAKNNLVISKL | inactive
KCSKLRGYTCIMLSIGCLNY | 2.71 ± 0.07
FDGHLINTFPRADASIAEDN | -0.454 ± 0.41
HRLVGTC | 1.86 ± 0.21
NTRRSFVRVYFNGLGLCGAN | inactive
YHWNVGIDGYLNSTMLLQAY | inactive
DRVQG | 1.2 ± 0.22
DFINIPSVFIIYMK | 1.73 ± 0.13
LFMFGFGIL | 0.05 ± 0.42
GIRVLRTRYSLELCMRCLLW | 0.126 ± 0.26
LIRPSLPSS | 0.807 ± 0.28
YSNRVTLMSYDIN | inactive
GNGLFSVFYIFYAAGKRSVC | 0.394 ± 0.62
DIIVYM | inactive

Substance | amyloid nucleation score
VEHEFVQILT | -0.733 ± 0.36
LDLALSQH | 1.54 ± 0.53
SYWKTSKCMTKLLGCNM | -0.243 ± 0.45
SSIDMSCQHHLVALIRGFKE | 2.24 ± 0.2
IQVLVLPISYISIRGQKWRN | 7.19 ± 0.08
HRASRMCGINLARPTVMVVT | 1.9 ± 0.12
AYWYSQRAMGFKHSLFLT | -0.921 ± 0.41
GGLAGWSGWNTQDELGCGTT | 0.775 ± 0.4
IHCRCVADCSRS | -0.097 ± 0.76
MHASDDMLKCWYKCAEVRPA | 1.29 ± 0.31
MKGNGCNIFRQGTWRDSFAD | -0.715 ± 0.41
VHARYMIFWKWTILLHS | inactive
LFRCELSLGRHMGFLDWEWG | 0.201 ± 0.38
HRTGWKIFVSW | 0.732 ± 0.17
DHRIWKAAREVVLVCHL | 0.629 ± 0.4
EIHGMCTLYIFNSRPYIYPG | 6.594 ± 0.035
NGCSYLERVYVVCYDDMAFG | 0.336 ± 0.5
LWVGQLTTY | 0.199 ± 0.45
TISWFLETYVRSLFPRVGRG | -0.035 ± 0.33
RSGLSVIYLYY | inactive
WGFIVDFILSGRRPAGYQLL | 0.309 ± 0.8
FKINESSYVLWDGSSYCRAG | -0.711 ± 1.1
CRLPQQKPHEMPTLDDFARS | 0.553 ± 0.44
GVKSFGVFGSMYWILMFSKA | -0.495 ± 0.48
LTNNHYIKPFRSRIRVMVMY | 4.79 ± 0.069

Substance | amyloid nucleation score
IPGSS | -0.137 ± 0.54
PIGRSCIYHKWE | 1.98 ± 0.18
DSTVRPMRGGECNAGVAGKE | 0.794 ± 0.24
RLKMEICDLTFPAQLFQTFG | 3.49 ± 0.079
NIGSWGVSRLSCLYAGLANG | 0.549 ± 0.42
VEGTPMFVWINWGVGKVGQS | 3.42 ± 0.051
FYLSAFRHVMRASCLDDLSK | inactive
ILANCGCCSNFSFYQMGEKY | 8.279 ± 0.047
ASPFRF | 0.816 ± 0.74
GGTNYANLMLALWFVVMIST | -0.295 ± 0.44
ITRSGWDFYLS | 0.687 ± 0.49
YRLMLMS | 0.43 ± 0.42
VTAAVNCFVNKAQLCTCLFM | 9.097 ± 0.052
CYWWDWVLY | -0.032 ± 0.45
LVGWSGLLTDALEFLLSKDV | -0.592 ± 0.76
LSKINVFWKSSTALQCLAPE | -0.322 ± 0.55
KQLKWFCITK | -0.862 ± 0.45
MWGIRSYLVKVL | -0.291 ± 0.76
GIFISISPPIGESSGNLQLN | inactive
VMQVVLGNMLMRRSQVLYNW | -0.62 ± 0.41
PNALQGSRDVCTLKRLASEA | 0.238 ± 0.57
